Legend:
Format in all cases: biochemical
Pol I transcription [1] = assay: Complementation of Pol I transcription in nuclear extracts from rapamycin-treated FM3A cells
Procedure: (B) Complementation of transcriptional activity in nuclear extracts from rapamycin-treated cells. Transcription reactions contained nuclear extracts (30 μg) from untreated (NE) or rapamycin-treated (NERapa) FM3A cells. In lanes 3-7, fractions containing partially purified Pol I transcription factors were added to NERapa-containing reactions.
(C) TIF-IA activates transcription in nuclear extracts form rapamycin-treated cells. Reactions were complemented with either 1 μl (lanes 2 and 5) of cellular TIF-IA (PL-650 fraction) or 20 ng (lanes 3 and 6) of immunopurified recombinant TIF-IA that has been expressed in SF9 cells.
(A) mTOR rescues transcription in vitro. Pol I transcription was assayed in nuclear extracts from rapamycin-treated FM3A cells. Reactions were supplemented with 50 ng TIF-IA (lane 1) or 10 ng, 20 ng and 30 ng of HA-mTOR (lanes 3-5).
(B) S6K1 activates Pol I transcription in extracts from rapamycin-treated cells. NERapa was supplemented with 50 ng TIF-IA (lane 1) or 100, 150 and 200 ng of GST-S6K1 (lanes 3-5) or GST-S6K1dd (lanes 6-8).
(§1) Nuclear extracts were prepared from exponentially growing (8×10^5 cells/ml), density-arrested or PD98059-treated (CN Bioscience, Bad Soden, Germany) 40 μM, 0.5 hr) or rapamycin-treated FM3A cells (ATCC, Manassas, USA). 25 μl assays contained 50 ng of template DNA (pMr600/EcoRI), 30 μg nuclear extract proteins and 12 mM Hepes-KOH, [pH8.0], 0.1 mM EDTA, 5 mM MgCl2, 80 mM KCl, 10 mM creatine phosphate, 12% (v/v) glycerol, 0.66 mM each of ATP, GTP and CTP, 0.01 mM UTP and 0.5 μCi [α-^32P]UTP (5000 Ci/mmol). After incubation for 60 min at 30° C., RNA was extracted and analyzed on non-denaturing 5% polyacrylamide gels
mTOR and S6K1 were purified from HEK293T cells overexpressing HA-tagged mTOR or GST/myc-tagged S6K1, respectively. 5×10^6 cells were lysed in 0.8 ml IP buffer, centrifuged at 10,000×g for 20 min, and the supernatants were incubated for 4 hr at 4° C. with either 15 μg anti-HA antibodies bound to 20 μl protein G-agarose (for HA-mTOR) or 20 μl packed GST-glutathione beads (for GST-myc-S6K1). […]

RSK2 = biological target: T1, RSK2 (Mus musculus, UniProt P18654, A376E/A378E/F387I/G384D/H379Q/INS385D/L381M/N377E/Q380E/S369E/S386Y/T365E); assay: In vitro kinase assay with immunopurified RSK2
T1 construct: made in house; host or cells: HEK293T (kinase, immunopurified via HA); E. coli BL21(DE3) (GST substrate)
T1 sequence (P18654 with tags, fused parts or gaps with the stated changes): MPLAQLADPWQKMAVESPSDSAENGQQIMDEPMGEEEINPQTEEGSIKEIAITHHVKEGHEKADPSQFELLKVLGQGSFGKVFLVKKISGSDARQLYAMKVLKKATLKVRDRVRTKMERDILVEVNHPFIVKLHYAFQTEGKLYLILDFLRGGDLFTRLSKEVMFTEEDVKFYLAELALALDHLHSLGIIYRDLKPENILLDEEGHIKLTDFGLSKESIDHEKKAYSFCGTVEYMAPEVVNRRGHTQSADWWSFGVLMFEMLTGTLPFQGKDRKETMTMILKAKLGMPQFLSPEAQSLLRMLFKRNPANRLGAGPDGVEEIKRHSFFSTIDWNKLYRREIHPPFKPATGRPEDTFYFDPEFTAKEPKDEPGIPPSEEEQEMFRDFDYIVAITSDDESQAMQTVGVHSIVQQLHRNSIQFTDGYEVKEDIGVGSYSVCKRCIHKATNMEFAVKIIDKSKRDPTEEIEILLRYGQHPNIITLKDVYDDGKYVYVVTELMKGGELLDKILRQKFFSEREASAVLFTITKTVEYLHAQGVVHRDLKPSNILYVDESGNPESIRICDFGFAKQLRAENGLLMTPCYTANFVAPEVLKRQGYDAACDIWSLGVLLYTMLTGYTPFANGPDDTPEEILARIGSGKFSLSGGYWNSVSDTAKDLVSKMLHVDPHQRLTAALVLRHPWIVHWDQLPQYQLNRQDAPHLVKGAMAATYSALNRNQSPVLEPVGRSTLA
Procedure: (A) Tryptic peptide maps of recombinant TIF-IA phosphorylated by RSK2 in vitro. GST/TIF-IA409-651 was phosphorylated with HA-RSK-CA in vitro and the phosphopeptide pattern was compared with that of wild-type TIF-IA and TIF-IA1-632 labeled in vivo.
HA-tagged ERK1/2 or RSK2-CA was overexpressed in HEK293T cells, immunopurified and immobilized to protein G agarose. After stringent washing, the beads were suspended in 20 μl of 1.5× kinase assay buffer (75 mM Tris-HCl [pH 8.0], 15 mM MgCl2, 1.5 mM DTT, 5% glycerol) and assayed for activity. 30 μl reactions contained 100 μM ATP, 0.2 μCi of […] (5000 Ci/mmol), 0.5-1 μg S6 peptide (RRSSLRA) or GST/TIF-IA (Yuan et al. EMBO Reports 3 (2002) 1082-1087) and 10 fmoles RSK. After incubation for 30 min at 30° C., 5 μl of the supernatants were spotted onto phosphocellulose paper (Whatman p81), washed with 150 mM orthophosphoric acid and quantified with a PhosphorImager (Molecular Dynamics, Inc.). Alternatively, labeled GST/TIF-IA was subjected to SDS-PAGE, blotted onto nitrocellulose, digested with trypsin and analyzed by two-dimensional phosphopeptide mapping.
Phosphoamino acid analysis has established that TIF-IA is exclusively phosphorylated on serine residues (data not shown). The C-terminal tryptic peptide of TIF-IA contains three S—P sites (FIG. 4B, upper panel), a known target motif for MAPKs. […]

Pol I transcription [2] = assay: Complementation of Pol I transcription in nuclear extracts from PD98059-treated FM3A cells; conditions: standard transcription system containing ATP and GTP
Procedure: (C) TIF-IA, but not UBF, rescues Pol I transcription in extracts from PD98059-treated cells. Nuclear extracts from untreated or PD98059-treated FM3A cells were supplemented with 20 and 40 ng of purified TIF-IA and/or UBF (10 ng in lanes 7 and 9, 50 ng in lanes 3, 8 and 10).
(D) TIF-IA activates transcription in extracts from PD98059-treated cells in the presence of AMP-PNP and GMP-PNP. Nuclear extracts from PD98059-treated FM3A cells were supplemented with 40 ng of purified TIF-IA and assayed in the standard transcription system containing ATP and GTP (ATP, lanes 1, 2) or AMP-PNP and GMP-PNP (AMP-PNP, lanes 3, 4)
(D) ERK/RSK-dependent phosphorylation activates Pol I transcription in vitro. Nuclear extracts from PD98059-treated FM3A cells were supplemented with 40 ng of TIF-IA, 10 ng of HA-RSK, or 10 ng of HA-ERK as indicated, and transcriptional activity was assayed in the standard transcription system containing ATP and GTP (lanes 4-8) or AMP-PNP and GMP-PNP (lanes 9-13).
as §1
To test whether both TIF-IA and UBF, or TIF-IA alone, were targeted by ERK-mediated phosphorylation, nuclear extracts from untreated and PD98059-treated cells were assayed for rDNA transcription in the absence and presence of exogenous TIF-IA or UBF (FIG. 2C). If both UBF and TIF-IA were inactivated by PD98059, rescue of Pol I transcriptional activity would require both factors, whereas TIF-IA alone would be sufficient if it was the only factor that is inactivated by inhibition of the ERK pathway. […]

Molecule	phosphorylation by RSK2 in vitro (RSK2)	further results
S6K1: GST/myc-tagged S6 kinase purified from HEK293T cells		rescue of Pol I transcription in extracts from rapamycin-treated cells (Pol I transcription [1]): activated Pol I transcription to an extent that compared to that of exogenous TIF-IA
UBF: basal Pol I transcription initiation factor, FLAG-tagged UBF1 purified from Sf9 cells (protein, UniProt P17480 1-764, looked up, UBF1 FLAG tag, basal Pol I transcription initiation factor, FLAG-tagged UBF1 purified from Sf9 cells) Nucleolar transcription …: MNGEADCPTDLEMAAPKGQDRWSQEDMLTLLECMKNNLPSNDSSKFKTTESHMDWEKVAFKDFSGDMCKLKWVEISNEVRKFRTLTELILDAQEHVKNPYKGKKLKKHPDFPKKPLTPYFRFFMEKRAKYAKLHPEMSNLDLTKILSKKYKELPEKKKMKYIQDFQREKQEFERNLARFREDHPDLIQNAKKSDIPEKPKTPQQLWYTHEKKVYLKVRPDATTKEVKDSLGKQWSQLSDKKRLKWIHKALEQRKEYEEIMRDYIQKHPELNISEEGITKSTLTKAERQLKDKFDGRPTKPPPNSYSLYCAELMANMKDVPSTERMVLCSQQWKLLSQKEKDAYHKKCDQKKKDYEVELLRFLESLPEEEQQRVLGEEKMLNINKKQATSPASKKPAQEGGKGGSEKPKRPVSAMFIFSEEKRRQLQEERPELSESELTRLLARMWNDLSEKKKAKYKAREAALKAQSERKPGGEREERGKLPESPKRAEEIWQQSVIGDYLARFKNDRVKALKAMEMTWNNMEKKEKLMWIKKAAEDQKRYERELSEMRAPPAATNSSKKMKFQGEPKKPPMNGYQKFSQELLSNGELNHLPLKERMVEIGSRWQRISQSQKEHYKKLAEEQQKQYKVHLDLWVKSLSPQDRAAYKEYISNKRKSMTKLRGPNPKSSRTTLQSKSESEEDDEEDEDDEDEDEEEEDDENGDSSEDGGDSSESSSEDESEDGDENEEDDEDEDDDEDDDEDEDNESEGSSSSSSSSGDSSDSDSN		rescue of Pol I transcription in extracts from PD98059-treated cells (Pol I transcription [2]): had no effect

Now from value to molecule, other results behind:

phosphorylation by RSK2 in vitro (RSK2)	Molecule	further results
not phosphorylated	GST/TIF-IA409-632: GST fusion of a TIF-IA C-terminal fragment lacking amino acids 633-651 (protein, UniProt Q9NYV6 409-632, looked up, fragment, GST fusion) SFLARAKFIPLITVKSCLDLLVNWLHIYLNNQDSGTKAFCDVALHGPFYSACQAVFYTFVFRHKQLLSGNLKEGLQYLQSLNFERIVMSQLNPLKICLPSVVNFFAAITNKYQLVFCYTIIERNNRQMLPVIRSTAGGDSVQICTNPLDTFFPFDPCVLKRSKKFIDPIYQVWEDMSAEELQEFKKPMKKDIVEDEDDDFLKGEVPQNDTVIGITPSSFDTHFR	
efficiently phosphorylated	GST/TIF-IA409-651: GST fusion of the C-terminal part of TIF-IA containing aa 410-651 (protein, UniProt Q9NYV6 410-651, looked up, fragment, GST fusion) FLARAKFIPLITVKSCLDLLVNWLHIYLNNQDSGTKAFCDVALHGPFYSACQAVFYTFVFRHKQLLSGNLKEGLQYLQSLNFERIVMSQLNPLKICLPSVVNFFAAITNKYQLVFCYTIIERNNRQMLPVIRSTAGGDSVQICTNPLDTFFPFDPCVLKRSKKFIDPIYQVWEDMSAEELQEFKKPMKKDIVEDEDDDFLKGEVPQNDTVIGITPSSFDTHFRSPSSSVGSPPVLYMQPSPL	

Reference: patent US20060057669A1, “Inactive transcription factor tif-ia and uses thereof” (priority 2002, published 2006)
